One data set deals with T1, TALE-TelR15 (artificial).
T1 chain: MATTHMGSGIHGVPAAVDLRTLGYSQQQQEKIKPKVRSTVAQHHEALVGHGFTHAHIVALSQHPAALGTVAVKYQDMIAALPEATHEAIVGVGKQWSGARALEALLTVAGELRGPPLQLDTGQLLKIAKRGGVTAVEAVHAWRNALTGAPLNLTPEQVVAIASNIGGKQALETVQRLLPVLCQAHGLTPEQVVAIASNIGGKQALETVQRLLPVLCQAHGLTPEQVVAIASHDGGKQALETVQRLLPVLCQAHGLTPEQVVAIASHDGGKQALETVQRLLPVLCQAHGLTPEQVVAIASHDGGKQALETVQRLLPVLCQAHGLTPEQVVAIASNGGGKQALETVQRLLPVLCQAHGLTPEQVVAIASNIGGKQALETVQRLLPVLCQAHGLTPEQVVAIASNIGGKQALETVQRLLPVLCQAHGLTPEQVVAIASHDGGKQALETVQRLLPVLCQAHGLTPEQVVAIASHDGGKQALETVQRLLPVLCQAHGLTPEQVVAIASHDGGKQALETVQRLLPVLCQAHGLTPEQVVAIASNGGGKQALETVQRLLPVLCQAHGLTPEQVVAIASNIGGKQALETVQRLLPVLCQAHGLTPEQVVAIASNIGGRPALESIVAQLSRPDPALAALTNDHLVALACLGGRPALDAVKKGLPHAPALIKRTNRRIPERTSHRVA
Kind of data set: methanol-fixed, 2N HCl treated cells, room temperature; signal correlates with telomere length (HeLa 1.3 higher than HeLa S3). The conditions noted are these: tags: fused sfGFP, mTagBFP2, mTFP1, YPet or mCherry (pT7CFE1-His vector). Here is the method: Cells grown on coverslips were fixed in ice-cold methanol for 10 min at −20° C. All subsequent steps were carried out at room temperature. The fixed cells were incubated with 2N HCl for 5 min and then washed twice with PBS for 5 min each and then incubated with a given TALEColor probe as a 1:10 dilution from the coupled in vitro transcription-translation reactions mixtures for 30 min. The cells were then washed once with PBS for 5 min. Coverslips were mounted in Prolong Antifade (Molecular Probes, Eugene, Oreg.), and images were captured with the fluorescence microscopy system described above.

Data set [1] deals with T2, TALE-TelR15 Green-Lysine labelled, no FP (artificial).
T2 chain: T1 chain
Kind of data set: fixed U2OS cells, compared with the mCherry fusion. The conditions noted are these: tags: internal lysines labelled with green dye (Promega), pET30a vector.

The results in this text go back to US20150099269, “Hybridization- Independent Labeling Of Repetitive DNA Sequence In Human Chromsomes” (University of Massachusetts, published 2015).

B1: TelR15 target (dsDNA)
DNA 1: TAACCCTAACCCTAA
DNA 2: TTAGGGTTAGGGTTA
Turning to B1, the binding result (with TALE-TelR15; in data set [1]) was “binds” throughout.
